Data set [1] concerns the target TLR4-TMICL (transmembrane domain and whole intracellular linker region of human TLR4, residues 624-670) (human). Put plainly: NMR titration; 1H,15N-TROSY spectra at various lipid(detergent)-to-protein ratios (LPR) in DPC micelles; populations of the states from cross-peak intensities; 45 °C; 20 mM phosphate buffer pH 6.0-6.5; monomer, dimer and higher oligomer.
Data set [2] addresses His657 (UniProt position 657, …). Put plainly: NMR. As to conditions: 45 °C (Methods: all NMR experiments), supplementary figure captions for the same samples state 40 °C, not stated (20 mM phosphate, no added salt mentioned), Monomeric, helical, membrane-mimetic-embedded TLR4-TMICL in anionic bicelles.
Data set [3] concerns the molecule itself. Put plainly: NMR titration; 1H,15N-TROSY spectra at various lipid(detergent)-to-protein ratios (LPR) in DPC micelles; populations of the states from cross-peak intensities; 45 °C; 20 mM phosphate buffer pH 6.0-6.5; monomer, dimer and higher oligomer.

“And” between values parts separate entries of the source, which are not always exact repeats. Equal values may be shown once.

As usually defined, the stoichiometry N is the number of molecules, sites or subunits per partner or assembly. As to “TLR4-TMICL (transmembrane domain and whole intracellular linker region of human TLR4, residues 624-670) (domain or fragment)”, the stoichiometry N in data set [1] was 2 and 3.

By pKa is commonly meant the pH at which an ionisable group is half protonated. As for MNITSQMNKTIIGVSVLSVLVVSVVAVLVYKFYFHLLMLAGCIKYGRG, the pKa in data set [2] is 6.16 ± 0.02.

B1: TLR4-TM (transmembrane domain of human TLR4 with the truncated ICL region, residues 624-657) (domain or fragment)
chain: MNITSQMNKTIIGVSVLSVLVVSVVAVLVYKFYFH
notes: not part of the stated range 624-657; human TLR4, predicted (UniProt) transmembrane and several juxtamembrane residues 624-657; 35 residues as printed; uniformly 13C/15N-labelled for NMR; cloned into pET22b by NdeI and HindIII; also called TLR-TM; source: continuous exchange cell-free expression (S30 extract of E. coli Rosetta(DE3)pLysS), as a precipitate; purified by size-exclusion …
For B1, the “stoichiometry N” value in data set [3] was 2 and 3.
